Literature values, collected in PMC6154725.

Target: Tyr7 (UniProt position 9, HHGWGYGQDDG)
Test: NMR
Details: solution, Zn enzyme, no ligand mentioned

Carbonic anhydrase II (HCA II) (Homo sapiens)
pKa: ~7
